Target: the molecule itself
Test: crystal structure; crystals from 100 mM Bis-Tris propane pH 7.5, 200 mM sodium sulfate, 20% PEG 3350; space group P2(1); 1.55 Å; two molecules per asymmetric unit; interface analysed with PISA

B1: triosephosphate isomerase from Cryptosporidium parvum Iowa II (enzyme, UniProt Q5CSE7 1-250, looked up)
chain: MSRKYFVGGNFKCNGTKESLKTLIDSFKQVESSNSEVYVFPTSLHISLVKEFFGNDHPGVFKIGSQNISCTGNGAFTGEVSCEMLKDMDVDCSLVGHSERRQYYSETDQIVNNKVKKGLENGLKIVLCIGESLSERETGKTNDVIQKQLTEALKDVSDLSNLVIAYEPIWAIGTGVVATPGQAQEAHAFIREYVTRMYNPQVSSNLRIIYGGSVTPDNCNELIKCADIDGFLVGGASLKPTFAKIIESAQ
notes: triosephosphate isomerase, Cryptosporidium parvum Iowa II, UniProt Q5CSE7, residues 1-250 (Met1-Gln250), full length; The final model extends from Ser2 to Gln250 in both chains; also called TIM; CrpaA.01119.a.A1; source: E. coli Rosetta Oxford strain [BL21*(DE3)-R3-pRARE2], purified (IMAC, tag cleavage with 3C protease, SEC)
stoichiometry N: 2

Reference: PMC3169408, “Structure of triosephosphate isomerase from Cryptosporidium parvum” (Acta Crystallographica Section F: Structural Biology and …, 2011)
